According to the supplement of paper PMC9170038:

Tested on: MS2 coat protein
Assay: apparent KD of MS2 coat protein; designed switch direction (-1 OFF switch, 1 ON switch): -1; higher = weaker reporter binding
Summary of the method: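 Three titration conditions were used: no input, 200 uM small-molecule ligand, and an oligonucleotide input. In each, SNAP-549-labelled MS2 coat protein was raised from 0.7 or 1.5 nM, doubling, to 3 µM over designed RNA switches transcribed on Illumina chips by stalled E. coli RNA polymerase. Curve fits of normalised cluster fluorescence gave values whose per-design median over clusters is the apparent KD.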

[1] = input ligand: microRNA oligo, concentration not stated
[2] = Eterna round: R95, input ligand: microRNA oligo, concentration not stated
[3] = Eterna round: R95, input ligand: FMN 200 uM
[4] = Eterna round: R95, input ligand: none

Sequence | apparent KD of MS2 coat protein (input ligand: FMN 200 uM) [nM] | apparent KD of MS2 coat protein [1] [nM] | apparent KD of MS2 coat protein (input ligand: none) [nM] | apparent KD of MS2 coat protein [2] [nM] | apparent KD of MS2 coat protein [3] [nM] | apparent KD of MS2 coat protein [4] [nM]
AAACAAGCGUGAGGCUCGUCUUAAAAAGCUUCAUGAAAAACAUGAGGAUCACCCAUGUAAAAUGAUCGAAAGAUCAA [JL turnoff v2 28] (Eterna round: R96, puzzle: Sensor v2, turn-off variant 2) | 15.4 | 34.2 | 18.2 | – | – | –
AAACACCAAGGAUAUACAUGAGGAUCACCCAUGUGGUCCGGCACGGGUCUCGAUUCGAGUAGAAGGUGGAUGGG [Eternabot (L1) Solution 80] (Eterna round: R97, puzzle: Exclusion 3) | 56.7 | – | 76.5 | – | – | –
AAACAGGAAGGAUAUACAUGAGGAUCACCCAUGUAGGAAAACCUACCAAAAGACCCAAGUAGAAGGUCCGAAAA [jl-ex3-4.64 ViennaUCT mod] (Eterna round: R97, puzzle: Exclusion 3) | 25.8 | – | 15.3 | – | – | –
AAACAGGGAGGAUAUACAUAGAUCGUCUAACCUAAUUGGUCACAUGAGGAUCACCCAUGUAGAAGGCCCUUAGG [Tiisdixe] (puzzle: Exclusion 2) | – | – | – | 22.2 | – | –
AAACCCUGAGGAUAUACAUAACAACAAAGCCUCACAUGCCAACAUGAGGAUCACCCAUGUAGAAGGCAGGCCAA [Mod R3 Insanara 13 - Jieux - Exclusion 2] (Eterna round: R97, puzzle: Exclusion 2) | 19.2 | – | 10.1 | – | – | –
AAACCUUGAGGAUAUACAUAACAACAAAGCCUCACGUGCCAACAUGAGGAUCACCCAUGUAGAAGGCAGGCCAA [Mod R3 Insanara 11 - Jieux - Exclusion 2] (Eterna round: R97, puzzle: Exclusion 2) | 15.6 | – | 12.7 | – | – | –
AAACGGAUAGGAUAUACUUGAGGAUCACCCAAGUGAUCAGUCCCGGGAAUUCCCGCAAGUAGAAGGAUCAAAAG [Arisrevexe] (Eterna round: R97, puzzle: Exclusion 3) | 1120 | – | 162 | – | – | –
AAACGGCAGGGAGGAUAUGCCUACCUGGGUCGUCUUCAAACAUGAGGAUCACCCAUGUAGUCGACGCAGAAGGCCCUCAAAGCC [Ontiis] (Eterna round: R96, puzzle: Exclusion NG 2) | 38.7 | 8.22 | 12.7 | – | – | –
AAACGUAGACAGGAUAUCUGCGCCCUUGGUUAAAGAGAAGGGUCUACAUGAGGAUCACCCAUGUGGUGUAACUC [Dibedididi] (puzzle: Exclusion 6) | – | – | – | 18.4 | 13.8 | 23.6
AAACUCCCAACCACCGGGAACAUGAGGAUCACCCAUGUGGCGUGACUCAUACGGGCUUUUUGUUCGUUUUAUUCACG [Soesesqu] (puzzle: Sensor v3, turn-off variant 1) | – | – | – | 20.1 | 69 | 72.5
AAAGAACAUGAGGAUCACCCAUGUGAGGAUAUGCGAAAACCGCUGGCGCACCAGACGGGCAGAAGGCAUAUGGU [Aonustiri] (puzzle: Exclusion 1) | – | – | – | 48.9 | – | –
AAAGAAGAGAGAAAAUAACACAUGAGGAUCACCCAUGUGAGAUGUUGAGGGUGAUACAGGCUUUUUGCUCGUCUUAU (puzzle: Sensor v3, turn-off variant 1) | – | – | – | 283 | 231 | 321
AAAGAAGAGAGAAAAUAACACAUGAGGAUCACCCAUGUGCGAUGUUGAGGGUGAUACAGGCUUUUUGCUCGUCUUAU (puzzle: Sensor v3, turn-off variant 1) | – | – | – | 512 | 311 | 199
AAAGACAUGAGGAUCACCCAUGUACUGGUGGAGCUCGUGAGGCAGGAUAUCGCGUGCGAAGCUCGCGAGAAGGGCCAGGAAUUU [Cexela] (Eterna round: R96, puzzle: Exclusion NG 3) | 416 | 98.2 | 109 | – | – | –
AAAGAGCAAGGAUAUACAUGAGGAUCACCCAUGUAGUACGUGAACCAGGUUUUCCUGAGUAGAAGGUGCAGACA [Dibira] (puzzle: Exclusion 3) | – | – | – | 28.1 | – | –
AAAGCGUCAGGAUAUCCAAUAUAUGACAUGAGGAUCACCCAUGUUUCCACUCGUACCUCCGGAGAAGGGACAAAUA [Ex5 #86] (Eterna round: R97, puzzle: Exclusion 5) | 32.5 | – | 38.1 | – | – | –
AAAUAACCUCUAGGAUAUGUGUACGUAUAGUGCGCAGAAGGAGACAUGAGGAUCACCCAUGUACACACACAACAAACGACCACC (Eterna round: R96, puzzle: Exclusion NG 1) | 26.1 | 27.3 | 30.4 | – | – | –
AAAUAAUGAGGAUAUACAGUGUAAAACAUGAGGAUCACCCAUGUUCUUCAAUUAGUAUUUGUAGAAGGCAUAGGUA [JR_Ex5_Sub094] (Eterna round: R97, puzzle: Exclusion 5) | 38.5 | – | 60.7 | – | – | –
AAAUACAAGCAGAGAUCCUACAUGAGGAUCACCCAUGUGCUCGUCUUAUAAAGUACUAUCACGAAAGUGAUAGUACA [Sensor 3, v1 - 17] (puzzle: Sensor v3, turn-off variant 1) | – | – | – | 41.8 | 184 | 218
AAAUACAAGUAAAGAUCCUACAUGAGGAUCACCCAUGUGCUCGUCUUGUAAAGUACUAUCACGAAAGUGAUAGUACA [Sensor 3, v1 - 22] (puzzle: Sensor v3, turn-off variant 1) | – | – | – | 31.5 | 45.7 | 51
AAAUACAAGUAAAGAUUCUACAUGAGGAUCACCCAUGUGCUCGUCUUAUAAAGUACUAUCACGAAAGUGAUAGUACA [Sensor 3, v1 - 26] (puzzle: Sensor v3, turn-off variant 1) | – | – | – | 188 | 17 | 15
AAAUACAAGUAGAGAUUCUACAUGAGGAUCACCCAUGUGCUCGUCUUAUAAAGUACUAUCACGAAAGUGAUAGUACA [Sensor 3, v1 - 37] (puzzle: Sensor v3, turn-off variant 1) | – | – | – | 211 | 14.2 | 14.1
AAAUAGCAUGAGGAUAUUGAACUGUAUAUAGUACGAGAAGGCAUGACAUGAGGAUCACCCAUGUUUUGUUGGGA [EX6 #3] (Eterna round: R97, puzzle: Exclusion 6) | 114 | – | 33.2 | – | – | –
